24 molecules from patent US20150344570A1 (published 2015) can be followed below.

T1: FcγRIIb extracellular domain with C-terminal His tag (human, UniProt P31994 43-217)
T1 construct: extracellular domain; also called FcgRIIb; 2b
T1 sequence (looked up): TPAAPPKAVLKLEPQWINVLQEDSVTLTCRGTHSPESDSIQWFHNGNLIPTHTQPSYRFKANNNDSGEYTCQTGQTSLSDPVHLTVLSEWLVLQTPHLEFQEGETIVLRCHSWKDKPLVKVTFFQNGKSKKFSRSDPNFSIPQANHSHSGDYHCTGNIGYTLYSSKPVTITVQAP

B1: GpH7-A5/GpH7-B3 variant P331_10E/GpL16-k0 (antibody, human IgG1, kappa)
heavy 1: not shown
heavy 2: not shown
light: DIVMTQSPLSLPVTPGEPASISCQASESLVHSNRNTYLHWYLQKPGQSPQLLIYKVSNRFSGVPDRFSGSGSGTDFTLKISRVEAEDVGVYYCSQNTHVPPTFGQGTKVEIERTVAAPSVFIFPPSDEQLKSGTASVVCLLNNFYPREAKVQWKVDNALQSGNSQESVTEQDSKDSTYSLSSTLTLSKADYEKHKVYACEVTHQGLSSPVTKSFNRGEC
notes: also called He Ab P331_10E
B2: GpH7-A5/GpH7-B3 variant V266_06M/GpL16-k0 (antibody, human IgG1, kappa)
heavy 1: not shown
heavy 2: not shown
light: B1 light
notes: also called He Ab V266_06M
B3: GpH7-A5/GpH7-B3 variant S337_08L/GpL16-k0 (antibody, human IgG1, kappa)
heavy 1: not shown
heavy 2: not shown
light: B1 light
notes: also called He Ab S337_08L
B4: GpH7-A5/GpH7-B3 variant S239_03V/GpL16-k0 (antibody, human IgG1, kappa)
heavy 1: not shown
heavy 2: not shown
light: B1 light
notes: also called He Ab S239_03V
B5: GpH7-A5/GpH7-B3 variant P331_07I/GpL16-k0 (antibody, human IgG1, kappa)
heavy 1: not shown
heavy 2: not shown
light: B1 light
notes: also called He Ab P331_07I
B6: GpH7-A5/GpH7-B3 variant S337_16H/GpL16-k0 (antibody, human IgG1, kappa)
heavy 1: not shown
heavy 2: not shown
light: B1 light
notes: also called He Ab S337_16H
B7: GpH7-A5/GpH7-B3 variant S337_15Y/GpL16-k0 (antibody, human IgG1, kappa)
heavy 1: not shown
heavy 2: not shown
light: B1 light
notes: also called He Ab S337_15Y
B8: GpH7-A5/GpH7-B3 variant T335_15Y/GpL16-k0 (antibody, human IgG1, kappa)
heavy 1: not shown
heavy 2: not shown
light: B1 light
notes: also called He Ab T335_15Y
B9: GpH7-A5/GpH7-B3 variant T335_16H/GpL16-k0 (antibody, human IgG1, kappa)
heavy 1: not shown
heavy 2: not shown
light: B1 light
notes: also called He Ab T335_16H
B10: GpH7-A5/GpH7-B3 variant S337_07I/GpL16-k0 (antibody, human IgG1, kappa)
heavy 1: not shown
heavy 2: not shown
light: B1 light
notes: also called He Ab S337_07I
B11: GpH7-A5/GpH7-B3 variant S239_06M/GpL16-k0 (antibody, human IgG1, kappa)
heavy 1: not shown
heavy 2: not shown
light: B1 light
notes: also called He Ab S239_06M
B12: GpH7-A5/GpH7-B3 variant S337_20W/GpL16-k0 (antibody, human IgG1, kappa)
heavy 1: not shown
heavy 2: not shown
light: B1 light
notes: also called He Ab S337_20W
B13: GpH7-A5/GpH7-B3 variant T335_19Q/GpL16-k0 (antibody, human IgG1, kappa)
heavy 1: not shown
heavy 2: not shown
light: B1 light
notes: also called He Ab T335_19Q
B14: GpH7-A5/GpH7-B3 variant T335_20W/GpL16-k0 (antibody, human IgG1, kappa)
heavy 1: not shown
heavy 2: not shown
light: B1 light
notes: also called He Ab T335_20W
B15: GpH7-A5/GpH7-B3 variant P331_20W/GpL16-k0 (antibody, human IgG1, kappa)
heavy 1: not shown
heavy 2: not shown
light: B1 light
notes: also called He Ab P331_20W
B16: GpH7-A5/GpH7-B3 variant T335_18N/GpL16-k0 (antibody, human IgG1, kappa)
heavy 1: not shown
heavy 2: not shown
light: B1 light
notes: also called He Ab T335_18N
B17: GpH7-A5/GpH7-B3 variant T335_13S/GpL16-k0 (antibody, human IgG1, kappa)
heavy 1: not shown
heavy 2: not shown
light: B1 light
notes: also called He Ab T335_13S
B18: GpH7-A5/GpH7-B3 variant T335_10E/GpL16-k0 (antibody, human IgG1, kappa)
heavy 1: not shown
heavy 2: not shown
light: B1 light
notes: also called He Ab T335_10E
B19: GpH7-A5/GpH7-B3 variant S267_06M/GpL16-k0 (antibody, human IgG1, kappa)
heavy 1: not shown
heavy 2: not shown
light: B1 light
notes: also called He Ab S267_06M
B20: GpH7-A5/GpH7-B3 variant S267_01G/GpL16-k0 (antibody, human IgG1, kappa)
heavy 1: not shown
heavy 2: not shown
light: B1 light
notes: also called He Ab S267_01G
B21: GpH7-A5/GpH7-B3 variant P271_10E/GpL16-k0 (antibody, human IgG1, kappa)
heavy 1: not shown
heavy 2: not shown
light: B1 light
notes: also called He Ab P271_10E
B22: GpH7-A5/GpH7-B3 variant S324_06M/GpL16-k0 (antibody, human IgG1, kappa)
heavy 1: not shown
heavy 2: not shown
light: B1 light
notes: also called He Ab S324_06M
B23: GpH7-A5/GpH7-B3 variant P331_16H/GpL16-k0 (antibody, human IgG1, kappa)
heavy 1: not shown
heavy 2: not shown
light: B1 light
notes: also called He Ab P331_16H
B24: GpH7-A5/GpH7-B3 variant P331_03V/GpL16-k0 (antibody, human IgG1, kappa)
heavy 1: not shown
heavy 2: not shown
light: B1 light
notes: also called He Ab P331_03V

The target in this experiment is T1, FcγRIIb extracellular domain with …. Description: SPR (Biacore), relative binding.
Take B1: the He/Con_2b was 116 % of HeCon Ab GpH7-A5/GpH7-B3/GpL16-k0.
The value for B2 was 251 % of HeCon Ab GpH7-A5/GpH7-B3/GpL16-k0; that for B3 was 100 % of HeCon Ab GpH7-A5/GpH7-B3/GpL16-k0.
With B4, the He/Con_2b is 108 % of HeCon Ab GpH7-A5/GpH7-B3/GpL16-k0.
The result for B5 reads 114 % of HeCon Ab GpH7-A5/GpH7-B3/GpL16-k0; that for B6, 105 % of HeCon Ab GpH7-A5/GpH7-B3/GpL16-k0; that for B7, 100 % of HeCon Ab GpH7-A5/GpH7-B3/GpL16-k0.
Regarding B8, the He/Con_2b was 108 % of HeCon Ab GpH7-A5/GpH7-B3/GpL16-k0.
The result for B9 reads 102 % of HeCon Ab GpH7-A5/GpH7-B3/GpL16-k0; that for B10, 104 % of HeCon Ab GpH7-A5/GpH7-B3/GpL16-k0; that for B11, 101 % of HeCon Ab GpH7-A5/GpH7-B3/GpL16-k0.
Turning to B12, the He/Con_2b was 109 % of HeCon Ab GpH7-A5/GpH7-B3/GpL16-k0.
With B13, the He/Con_2b is 100 % of HeCon Ab GpH7-A5/GpH7-B3/GpL16-k0.
The result for B14 reads 104 % of HeCon Ab GpH7-A5/GpH7-B3/GpL16-k0.
The result for B15 reads 111 % of HeCon Ab GpH7-A5/GpH7-B3/GpL16-k0; that for B16, 102 % of HeCon Ab GpH7-A5/GpH7-B3/GpL16-k0; that for B17, 102 % of HeCon Ab GpH7-A5/GpH7-B3/GpL16-k0.
The result for B18 reads 108 % of HeCon Ab GpH7-A5/GpH7-B3/GpL16-k0; that for B19, 210 % of HeCon Ab GpH7-A5/GpH7-B3/GpL16-k0.
With B20, the He/Con_2b was 105 % of HeCon Ab GpH7-A5/GpH7-B3/GpL16-k0.
The value for B21 was 109 % of HeCon Ab GpH7-A5/GpH7-B3/GpL16-k0.
The value for B22 was 112 % of HeCon Ab GpH7-A5/GpH7-B3/GpL16-k0; that for B23 was 116 % of HeCon Ab GpH7-A5/GpH7-B3/GpL16-k0.
Take B24: the He/Con_2b is 119 % of HeCon Ab GpH7-A5/GpH7-B3/GpL16-k0.
